# In patent US20220162261A1 (published 2022):
# Bridge positions count the residues as written; N and C are the ends. Square brackets hold non-standard residues; d marks the D form. Phe(4-tBu) = CC(C)(C)c1ccc(C[C@H](N)C(=O)O)cc1; 2Nal = N[C@@H](Cc1ccc2ccccc2c1)C(=O)O; NMeR = CN[C@@H](CCCNC(=N)N)C(=O)O; β3hE = N[C@@H](CCC(=O)O)CC(=O)O; NMeK = CN[C@@H](CCCCN)C(=O)O; Pen = CC(C)(S)[C@H](N)C(=O)O; dNMeK = CN[C@H](CCCCN)C(=O)O
# B1: SEQ ID NO: 68 (peptide)
# peptide: Ac-[Pen][NMeR]SDTL[Pen]W[dE][dK]-NH2
# modifications: disulfide 1-7; not fully specified (residue 10); printed as (Ac Pen N-Me-R S D T L Pen W e k NH2)2 DIG, disulfide Pen-Pen; also: homodimer via DIG linker
# B2: SEQ ID NO: 218 (peptide)
# peptide: Ac-[Pen][NMeR]SDTL[Pen][Phe(4-tBu)][β3hE][dK]-NH2
# modifications: disulfide 1-7; not fully specified (residue 10); printed as (Ac Pen N-Me-R S D T L Pen F(4-tBu) b-H-E k NH2)2 DIG, disulfide Pen-Pen; also: dimer, two subunits joined by DIG linker
# notes: also called peptide 218
# B3: SEQ ID NO: 214 (peptide)
# peptide: Ac-[Pen][NMeR]SDTL[Pen]WE[dNMeK]-NH2
# modifications: disulfide 1-7; not fully specified (residue 10); printed as (Ac Pen N-Me-R S D T L Pen W E N-Me-k NH2)2 DIG, disulfide Pen-Pen; also: dimer, two subunits joined by DIG linker
# notes: also called peptide 214
# B4: SEQ ID NO: 216 (peptide)
# peptide: Ac-[Pen][NMeR]SDTL[Pen]W[dE][dK]-OH
# modifications: disulfide 1-7; not fully specified (residue 10); printed as (Ac Pen N-Me-R S D T L Pen W e k OH)2 DIG, disulfide Pen-Pen; also: dimer, two subunits joined by DIG linker
# notes: also called peptide 216
# B5: SEQ ID NO: 215 (peptide)
# peptide: Ac-[Pen][NMeR]SDTL[Pen]WE[NMeK]-NH2
# modifications: disulfide 1-7; not fully specified; printed as [Ac-Pen-(N-Me-Arg)-Ser-Asp-Thr-Leu-Pen-Trp-Glu-(N-Me-Lys)-NH2]2-DIG; also: homodimer: two identical subunits joined by DIG linker at the Lys10 side chains, each subunit has its own Pen1-Pen7 disulfide
# notes: also called peptide 215
# B6: SEQ ID NO: 67 (peptide)
# peptide: Ac-[Pen][NMeR]SDTL[Pen]WE[dK]-NH2
# modifications: disulfide 1-7; not fully specified (residue 10); printed as (Ac Pen N-Me-R S D T L Pen W E k NH2)2 DIG, disulfide Pen-Pen; also: homodimer via DIG linker
# notes: also called Peptide Z
# B7: SEQ ID NO: 78 (peptide)
# peptide: Ac-[Pen][NMeR]SDTL[Pen]WE[dK]-OH
# modifications: disulfide 1-7; not fully specified (residue 10); printed as (Ac Pen N-Me-R S D T L Pen W E k OH)2 DIG, disulfide Pen-Pen; also: homodimer: two subunits linked by DIG via D-Lys10 side chain
# B8: SEQ ID NO: 210 (peptide)
# peptide: Ac-[Pen][NMeR]SDTL[Pen][2Nal]E[dK]-NH2
# modifications: disulfide 1-7
# SMILES: CC(=O)N[C@@H]1C(=O)N(C)[C@@H](CCCNC(=N)N)C(=O)N[C@@H](CO)C(=O)N[C@@H](CC(=O)O)C(=O)N[C@@H]([C@@H](C)O)C(=O)N[C@@H](CC(C)C)C(=O)N[C@H](C(=O)N[C@@H](Cc2ccc3ccccc3c2)C(=O)N[C@@H](CCC(=O)O)C(=O)N[C@H](CCCCN)C(N)=O)C(C)(C)SSC1(C)C
# B9: Peptide Z-biotin (peptide)
# peptide: Ac-[Pen][NMeR]SDTL[Pen]WE[dK]-NH2
# modifications: disulfide 1-7; not fully specified (residue 10); printed as (Ac-Pen-(N-Me-Arg)-S-D-T-L-Pen-W-E-k-NH2)2-DIG; also: homodimer: two subunits joined by DIG linker, biotin label, attachment not given here
# Target: T1, human α4β7 integrin on cells (human, UniProt P13612 34-1032; P26010 20-798)
# T1 construct: whole, on cells; also called α4β7 cell (Hu); RPMI8866 cells
# Assay: PBMC memory T cell adhesion
row,IC50 [nM],Binder
1,> 100,B1

# Target: T2, α4β1 (R&D Systems #5668-A4) (UniProt P13612 34-970; P05556 21-728, limits assumed)
# T2 construct: bought; also called soluble α4β1
# Assay: competition ELISA vs VCAM-1
row,IC50 [nM],Binder
1,490,B2
2,436,B3
3,247,B4
4,270,B5
5,463,"Ac-C[NMeR]SDTL[Pen]W[dK]-NH2 (disulfide 1-7; also: homodimer via DIG linker on D-Lys9 side chains, also called peptide 204) [SEQ ID NO: 204]"
6,368,"XRSDTLXWK ((Ac Pen N-Me-R S D T L Pen W k NH2)2 DIG; disulfide Pen-Pen, also called peptide 209) [SEQ ID NO: 209]"

# Target: T2, α4β1 (R&D Systems #5668-A4)
# Assay: competition ELISA vs VCAM-1
# Remark: another data set of the same source
row,IC50 [nM],Binder
1,> 100,B6
2,> 500,B1
3,> 100,B7

# Target: α4β1 (R&D Systems #5668-A4) (UniProt P13612)
# Assay: competition ELISA vs VCAM-1
row,IC50 [nM],Binder
1,200,B8
2,70,"Ac-[Pen][NMeR]SDTL[Pen][2Nal]E[dK]-NH2 (disulfide 1-7; also: dimer (…)2 DIG, attachment not given here) [SEQ ID NO: 212]"

# Target: mouse α4β7 integrin on TK1 cells (mouse) (UniProt Q00651)
# Sequence (Q00651 41-1039, chain 1 of 2): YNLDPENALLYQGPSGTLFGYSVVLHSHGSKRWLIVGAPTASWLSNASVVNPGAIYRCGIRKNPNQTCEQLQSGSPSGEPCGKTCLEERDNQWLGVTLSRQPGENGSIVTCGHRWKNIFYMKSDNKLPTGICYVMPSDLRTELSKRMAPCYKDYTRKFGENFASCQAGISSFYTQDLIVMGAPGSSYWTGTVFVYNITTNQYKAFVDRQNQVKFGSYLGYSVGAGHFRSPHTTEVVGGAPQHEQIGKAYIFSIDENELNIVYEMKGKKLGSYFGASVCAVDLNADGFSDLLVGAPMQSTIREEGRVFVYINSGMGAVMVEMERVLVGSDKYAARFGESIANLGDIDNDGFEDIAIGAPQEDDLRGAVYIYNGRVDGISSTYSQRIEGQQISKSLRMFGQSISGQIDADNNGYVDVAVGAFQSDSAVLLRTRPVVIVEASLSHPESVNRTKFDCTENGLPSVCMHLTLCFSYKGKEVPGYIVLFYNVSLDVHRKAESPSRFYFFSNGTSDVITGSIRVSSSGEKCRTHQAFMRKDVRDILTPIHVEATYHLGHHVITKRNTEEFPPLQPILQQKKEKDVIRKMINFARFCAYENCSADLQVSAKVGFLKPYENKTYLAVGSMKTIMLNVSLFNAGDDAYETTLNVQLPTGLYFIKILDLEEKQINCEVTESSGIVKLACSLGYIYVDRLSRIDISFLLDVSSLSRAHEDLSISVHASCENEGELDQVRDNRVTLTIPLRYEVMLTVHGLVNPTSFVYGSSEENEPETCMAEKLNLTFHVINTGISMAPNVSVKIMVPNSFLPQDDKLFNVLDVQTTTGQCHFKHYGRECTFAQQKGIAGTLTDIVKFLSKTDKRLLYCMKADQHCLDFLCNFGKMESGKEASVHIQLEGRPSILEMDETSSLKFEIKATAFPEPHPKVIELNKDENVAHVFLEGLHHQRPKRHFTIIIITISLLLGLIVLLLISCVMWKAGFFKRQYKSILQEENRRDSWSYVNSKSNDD
# Sequence (P26011 20-806, chain 2 of 2, further chain): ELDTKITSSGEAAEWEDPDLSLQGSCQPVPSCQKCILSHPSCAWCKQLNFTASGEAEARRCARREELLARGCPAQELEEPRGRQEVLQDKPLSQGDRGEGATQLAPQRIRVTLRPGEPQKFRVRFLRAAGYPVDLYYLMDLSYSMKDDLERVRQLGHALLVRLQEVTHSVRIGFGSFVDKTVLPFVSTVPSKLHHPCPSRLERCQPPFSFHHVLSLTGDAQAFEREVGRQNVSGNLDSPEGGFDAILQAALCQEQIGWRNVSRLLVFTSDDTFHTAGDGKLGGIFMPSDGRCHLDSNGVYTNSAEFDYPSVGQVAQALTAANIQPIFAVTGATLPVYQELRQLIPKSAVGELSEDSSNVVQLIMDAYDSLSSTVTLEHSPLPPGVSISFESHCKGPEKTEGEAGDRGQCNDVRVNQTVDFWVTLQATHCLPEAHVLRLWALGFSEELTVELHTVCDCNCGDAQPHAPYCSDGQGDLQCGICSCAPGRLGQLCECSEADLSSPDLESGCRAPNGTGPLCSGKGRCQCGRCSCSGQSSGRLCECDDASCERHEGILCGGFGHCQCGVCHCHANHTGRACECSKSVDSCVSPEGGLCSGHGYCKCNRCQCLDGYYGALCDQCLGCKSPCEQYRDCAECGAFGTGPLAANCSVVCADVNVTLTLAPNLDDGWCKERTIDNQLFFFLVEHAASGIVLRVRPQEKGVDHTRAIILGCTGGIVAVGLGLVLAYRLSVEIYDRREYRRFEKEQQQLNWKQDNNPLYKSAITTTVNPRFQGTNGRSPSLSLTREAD
# Assay: TK1 cell adhesion to MAdCAM-1
row,IC50 [nM],Binder
1,60,B8
2,2.5,"Ac-[Pen][NMeR]SDTL[Pen][2Nal]E[dK]-NH2 (disulfide 1-7; also: dimer (…)2 DIG, attachment not given here) [SEQ ID NO: 212]"

# Target: T1, human α4β7 integrin on cells
# Assay: PBMC memory T cell adhesion
# Remark: another data set of the same source
row,IC50 [nM],Binder
1,2,B2
2,24.5,B3
3,14.5,B4
4,16.5,B5
5,1280,"Ac-C[NMeR]SDTL[Pen]W[dK]-NH2 (disulfide 1-7; also: homodimer via DIG linker on D-Lys9 side chains, also called peptide 204) [SEQ ID NO: 204]"
6,260,"XRSDTLXWK ((Ac Pen N-Me-R S D T L Pen W k NH2)2 DIG; disulfide Pen-Pen, also called peptide 209) [SEQ ID NO: 209]"

# Target: human α4β1 integrin on cells (human) (UniProt P13612)
# Assay: Jurkat cell adhesion to VCAM-1
row,IC50 [nM],Binder
1,> 100000,"Ac-[Pen][NMeR]SDTL[Pen][2Nal][dE][dK]-NH2 (disulfide 1-7; also: dimer (…)2 DIG, attachment not given here) [SEQ ID NO: 33]"
2,> 100000,B8
3,> 100000,"Ac-[Pen][NMeR]SDTL[Pen][2Nal]E[dK]-NH2 (disulfide 1-7; also: dimer (…)2 DIG, attachment not given here) [SEQ ID NO: 212]"

# Target: T3, human α4β1 integrin on cells (human, UniProt P13612 34-1032; P05556 21-798)
# T3 construct: whole, on cells; also called α4β1 cell; Jurkat cells
# Assay: Jurkat cell adhesion to VCAM-1
row,IC50 [nM],Binder
1,> 100000,B2
2,> 100000,B4
3,> 100000,"Ac-C[NMeR]SDTL[Pen]W[dK]-NH2 (disulfide 1-7; also: homodimer via DIG linker on D-Lys9 side chains, also called peptide 204) [SEQ ID NO: 204]"
4,> 100000,"XRSDTLXWK ((Ac Pen N-Me-R S D T L Pen W k NH2)2 DIG; disulfide Pen-Pen, also called peptide 209) [SEQ ID NO: 209]"

# Target: T4, mouse α4β7 integrin on TK1 cells (mouse, UniProt Q00651 41-1039; P26011 20-806)
# T4 construct: whole, on cells; also called α4β7 cell (Mu); Cell Adhesion α4β7 Mouse
# T4 sequence (Q00651 41-1039, chain 1 of 2): as the sequence (Q00651 41-1039, chain 1 of 2) above
# T4 sequence (P26011 20-806, chain 2 of 2): as the sequence (P26011 20-806, chain 2 of 2, further chain) above
# Assay: TK1 cell adhesion to MAdCAM-1
row,IC50 [nM],Binder
1,≤ 10,B6
2,≤ 10,B1
3,≤ 10,B7

# Target: T3, human α4β1 integrin on cells
# Assay: Jurkat cell adhesion to VCAM-1
# Remark: another data set of the same source
row,IC50 [nM],Binder
1,> 100000,B6
2,> 100000,B1
3,> 100000,B7

# Target: T1, human α4β7 integrin on cells
# Assay: RPMI8866 cell adhesion to MAdCAM-1
row,IC50 [nM],Binder
1,0.78,B2
2,2.5,B3
3,4.2,B4
4,3,B5
5,22,"Ac-C[NMeR]SDTL[Pen]W[dK]-NH2 (disulfide 1-7; also: homodimer via DIG linker on D-Lys9 side chains, also called peptide 204) [SEQ ID NO: 204]"
6,24,"XRSDTLXWK ((Ac Pen N-Me-R S D T L Pen W k NH2)2 DIG; disulfide Pen-Pen, also called peptide 209) [SEQ ID NO: 209]"

# Target: rh integrin α4β7 (R&D Systems #5397-A30) (human) (UniProt P13612)
# Assay: competition ELISA vs MAdCAM-1
row,IC50 [nM],Binder
1,11,B8
2,2,"Ac-[Pen][NMeR]SDTL[Pen][2Nal]E[dK]-NH2 (disulfide 1-7; also: dimer (…)2 DIG, attachment not given here) [SEQ ID NO: 212]"

# Target: human α4β7 integrin on cells (human) (UniProt P13612)
# Assay: RPMI8866 cell adhesion to MAdCAM-1
row,IC50 [nM],Binder
1,40,B8
2,2.5,"Ac-[Pen][NMeR]SDTL[Pen][2Nal]E[dK]-NH2 (disulfide 1-7; also: dimer (…)2 DIG, attachment not given here) [SEQ ID NO: 212]"

# Target: human α4β7 integrin on cells (human) (UniProt P13612)
# Assay: PBMC memory T cell adhesion
row,IC50 [nM],Binder
1,517,B8

# Target: T4, mouse α4β7 integrin on TK1 cells
# Assay: TK1 cell adhesion to MAdCAM-1
# Remark: another data set of the same source
row,IC50 [nM],Binder
1,0.5,B2
2,1.1,B3
3,1,B4
4,0.9,B5
5,51,"XRSDTLXWK ((Ac Pen N-Me-R S D T L Pen W k NH2)2 DIG; disulfide Pen-Pen, also called peptide 209) [SEQ ID NO: 209]"

# Target: T1, human α4β7 integrin on cells
# Assay: RPMI8866 cell adhesion to MAdCAM-1
# Remark: another data set of the same source
row,IC50 [nM],Binder
1,≤ 10,B6
2,> 25,B1
3,≤ 10,B7

# Target: T5, soluble α4β7 integrin (UniProt P13612 34-970; P26010 20-723, limits assumed)
# T5 construct: analyte of the SPR experiment
# Assay: SPR, binder on streptavidin chip, soluble α4β7
Half-life for dissociation [h],Kd [nM],koff [s⁻¹],Binder
3.53,52.1,5.46e-05,B9

# Target: T6, rh integrin α4β7 (R&D Systems #5397-A30) (human, UniProt P13612 34-970; P26010 20-723)
# T6 construct: bought; coated on a nickel coated plate; also called immobilized α4β7; immobilized α4β7 integrin protein
# Assay: competition ELISA vs MAdCAM-1
row,IC50 [nM],Binder
1,2.8,B2
2,4.1,B3
3,2.8,B4
4,2.2,B5
5,2,"Ac-C[NMeR]SDTL[Pen]W[dK]-NH2 (disulfide 1-7; also: homodimer via DIG linker on D-Lys9 side chains, also called peptide 204) [SEQ ID NO: 204]"
6,2.3,"XRSDTLXWK ((Ac Pen N-Me-R S D T L Pen W k NH2)2 DIG; disulfide Pen-Pen, also called peptide 209) [SEQ ID NO: 209]"

# Target: T6, rh integrin α4β7 (R&D Systems #5397-A30)
# Assay: competition ELISA vs MAdCAM-1
# Remark: another data set of the same source
row,IC50 [nM],Binder
1,≤ 10,B6
2,≤ 10,B1
3,≤ 10,B7
